Reference: the nanobody polyreactivity screen of Harvey et al. (2022)

Experiment: yeast display, Sf9 membrane polyspecificity reagent, FACS + sequencing; frameworks hold sequencing errors
Outline: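 Polyreactivity labels are assigned by the sorting gate from which each nanobody was recovered. The gates were low and high (top ~1%), set on anti-HA fluorescence for expression and streptavidin fluorescence for reagent binding. Before sorting, galactose-induced (36–48 hours) yeast display cells were stained for 1 hour at 4 °C with 10% biotinylated, detergent-solubilized Sf9 membrane reagent.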
With “QVQLVESGGGLVQSGGILLLSCAASGITFGRNAMGWYRQAPGKEGELVAAISRGGSTNYADSVKGRFTISRDNAKNTVYLQMNRLKPEDTAVYYCATAYRGRAWGYDYWGQGTQVTVSS” the “polyreactivity (PSR sort gate)” value was “high polyreactivity”. In the case of “QVQLVESGGGLVQSGGSLRLSCAACGGTFYRYAMGWYRQAPGKERELVAAITSGSSTYYADSVKGRFTISRDNAKNTVYLQMNSLTPEDTAVYYCAAARYSRLSRTRPGKYGYWGQGTQVTVST”, the “polyreactivity (PSR sort gate)” value is reported as “low polyreactivity”. With “QVQLVESGGGLVQSGGSLRLSCAASGFSFRYYAMGWYRQAPGKERELVAAITQSGGTTYYADSVKGRFTISRDNAKNTVYLQMNSLKPEDTAVYYCNGYGYGFTGKGDYWGQGTQVTVSS” the “polyreactivity (PSR sort gate)” value was “high polyreactivity”. In the case of “QVQLVESGGGLVQSGGSLRLSCAASGFTFYRYTMGWYRQAPGKERELVAISSDGSTNYADSVKGRFTISRDNAKNTVYLQMNSLKPEDTAVYYCNAVYYNWIGFDYWGQGTQVTVSS”, the “polyreactivity (PSR sort gate)” value is reported as “low polyreactivity”. For “QVQLVESGGGLVQSGGSLRLSCAASGGIFGINAMGWYRQAPGKEREFVAAITASGGTTYYADSVKGRFTISRDNAKNTVYLQMNRLKPEDTAVYYCAKRYRSYDYVWYEYWGQGTQVTVSS”, the “polyreactivity (PSR sort gate)” value was “high polyreactivity”. In the case of “QVQLVESGGGLVQSGGSLRLSCAASGINFLYYAMGWYIQAPGKERELVARINRSGGSTYYADSVKGRFTISRDNAKYTVYLQMNSLKPEDSAVYYCAADYLYRSPAYEHYYWGQGTQVTVSS”, the “polyreactivity (PSR sort gate)” value is reported as “high polyreactivity”. With “QVQLVESGGGLVQSGGSLRLSCAASGITFFFNAMGWYRQAPGKERELVAPITSGGGSTYYADSVKGRFTISRENAKNTVYLQMNSLKPEDTAVYYCAAEWSYGGMDYWGQGTQVTVSS” the “polyreactivity (PSR sort gate)” value was “low polyreactivity”. In the case of “QVQLVESGGGLVQSGGSLRLSCAASGRIFDENAMGWYRQAPGKERELVAAITGGDSTNYADSVKGRFTISRDNAKNTVYLQMNSLKPEDTAVYYCAVDVIYYWAEDYDYWGQGTQVTVSS”, the “polyreactivity (PSR sort gate)” value is reported as “low polyreactivity”. For “QVQLVESGGGLVQSGGSLRLSCAASGRIFSYYTIGWYRHEPGKEREIVAAITWSGGSTYYADSVKGRFTISRDNAKNTVFLQLNRLKPEDTAVYYCNRVAPHDLRNRQEDNYWGQGTQVTVSS”, the “polyreactivity (PSR sort gate)” value was “low polyreactivity”. In the case of “QVQLVESGGGLVQSGGSLRLSCAASGRIFWYNAMRWYSQAPGKDRELVARITRGTRTYYADSVKGRFTISRDNAKNTVYLQMNSLKPEDTAVYYCRLQFSYTPHYDYWGQGTQVTVSS”, the “polyreactivity (PSR sort gate)” value is reported as “high polyreactivity”. For “QVQLVESGGGLVQSGGSLRLSCAASGRILSYNTMGSYRQAPGKERELVAAISRGGSTYYADSVKGRFTISRDNAKNTVYLQMNSLKPEDTAVYYCNALLPPGSRKYNYWGQGTQVTVSS”, the “polyreactivity (PSR sort gate)” value was “high polyreactivity”. In the case of “QVQLVESGGGLVQSGGSLRLSCAASGRTFGGYAMGWYRQAPGKERELVAAIRRSGGSTYYADSVKGLFTISRDNAKNTFYLQMKSMKPEDTAVYYCAAYGIYNVRIYYLGQGTQVTVSS”, the “polyreactivity (PSR sort gate)” value is reported as “high polyreactivity”. In the case of “QVQLVESGGGLVQSGGSLRLSCAASGRTFNANVMGWYRPAPGKERELVAAITYSGGSTYYADSVKGRFTISRDNAKNTVYLQMNSLKPEDTAVYYCAADYVYTFYYWGQGTQVTVSS”, the “polyreactivity (PSR sort gate)” value is reported as “low polyreactivity”. In the case of “QVQLVESGGGLVQSGGSLRLSCAASGSIFDFYVMGWYRQAPGKERELVAAITWSDGSTYYADSVKGRFTISRDNAKNTVYLQMNSLKPEDTAVYYCNAGYFPLLGYPADAIGYDYWGQGTQVTVSS”, the “polyreactivity (PSR sort gate)” value is reported as “low polyreactivity”. In the case of “QVQLVESGGGLVQSGGSLRLSCAASGSIFNRYAMGWYRQAPGKERELVAAISARGGSTYYADSVKGRFTISRDNAKNTVYLQMNSLKPEDTAVYYCAARRQGDYYYWGQGTQVTVSS”, the “polyreactivity (PSR sort gate)” value is reported as “high polyreactivity”. With “QVQLVESGGGLVQSGGSLRLSCAASGSTIFRYAMGWSRQAPGKERELVAAISWSGASTYYADSVKGRFTISRDNAKNPVYLHMNSQKPEDTAVYYCAARSRWYDAAGYPKYYYWGHGTQVTVSS” the “polyreactivity (PSR sort gate)” value was “high polyreactivity”. With “QVQLVESGGGLVQSGGSLRLSCAASGSTVTQYVMGWYRQAPGKERELVAAISDSGSTYYADSVKGRFTISRDKAKNTVYLQMNSLKPEDTAVYYCAAAAPYHGLLYEGDYGGQGTQVTVSS” the “polyreactivity (PSR sort gate)” value was “low polyreactivity”. In the case of “QVQLVESGGGLVQSGGSLRLSGAASGSTYGLNAMGWYRQAPRKEMELVAAITRSDITNYADSVNGRFRISRDNAKNTVYLQMNSLKPEDTAVYYCNKTPDRHRRYFGYGYWGQGTQVTVSS”, the “polyreactivity (PSR sort gate)” value is reported as “low polyreactivity”. For “QVQLVESGGGLVQSGGSLRLSSAASGYTFWAYPMGWYRQAPGKERELVAGISSRGSRTYYADSVKGRFTISRDNAKNTVYLQMNSLKPEDTAVYFCNALRTAQGYYPPLDYWGQGTQVTVSS”, the “polyreactivity (PSR sort gate)” value was “high polyreactivity”. For “QVQLVESGGGLVQSGGSLRLTWAASGFTFNRYAMGWYRQAPGKEMELVAAITSRSGITYYADSVKGRFTISRDNAKNTVYLQMNSLKPEDTAVYYCAAYVSRSTEFDYGFWGQGTQVTVSS”, the “polyreactivity (PSR sort gate)” value was “high polyreactivity”. For “QVQLVESGGGLVQSRVSLRLSCAASGRTIYVNAMGWYRQAPGKEREFVATISGGGSTKYADSVKGRFTISRDNAKNTVYLQMNSLKPEDTAVYYCARRRERYTADSRGYGYWGQGTQVTVSS”, the “polyreactivity (PSR sort gate)” value was “low polyreactivity”. With “QVQLVESGGGLVQTGGSLRLSCAASGRIFRSYAMGWYRPAPGKERELVAAISGSGGSTYYADSVKGRFTISRDNAKNTVYVQMNSLKPEDTAVYYCNACKVHPFSTRFYYWGQGTQVTVSS” the “polyreactivity (PSR sort gate)” value was “low polyreactivity”. With “QVQLVESGGGLVQTGGSLRLSCAASGSIFGEYAMGWYRQAPGKEREFVADITWSDGSTYYADSVKGRFTISRDNAKNTVYLQMNSLKPEDTAVYYCAADSVLDRPVLYLWPWYLGDYWGQGTQVTVSS” the “polyreactivity (PSR sort gate)” value was “low polyreactivity”. For “QVQLVESGGGLVQTGGSLRLSCAASGSTFEYNAMGWYRQAPGKERELVAAITWTGGSRYYADSVKGRFTISRDNAKNSVYFQMNSLKPEDTAVYYCNAVSYVDIWDDRRYYYWGQGTQVTVSS”, the “polyreactivity (PSR sort gate)” value was “low polyreactivity”. With “QVQLVESGGGLVQTGGSLRLSCAASGSTFYLYTMGWYRQAPGKERELVAAISGRDGSTYYADSVKGRFTISRDNAKNTVYLQMNSLKPEDTAVYYCAADPGYTYVHVTYYYWGQGTQVTVSS” the “polyreactivity (PSR sort gate)” value was “low polyreactivity”. In the case of “QVQLVESGGGLVQVGGSLRLSCAASGRTFWWYAMGWYRQAPGKERELVAAISRGSTNYADSVKGRFTISRDNAKNTVYLQMNSLKPEDTAVYYCKAVSLYQSHDYDYWGQGTQVTVSS”, the “polyreactivity (PSR sort gate)” value is reported as “low polyreactivity”. For “QVQLVESGGGLVQVGGSLRLSCAASGRTFYDYAMGWYRQAPGKERELVAAITWSGGSTYYADSVKGRFTISRDNAKNTVYLQMNSLKPEDTAVSYCAKGGSYQSRYDYWGQGTQVTVSS”, the “polyreactivity (PSR sort gate)” value was “low polyreactivity”. With “QVQLVESGGGLYQAGGSLRLSCAASGFIFDPYARGWYRQAPGKEMELVASITWYGGRTYYADSVKGRFTISRDNAKNTVYLQMNSLKPEDPAVYYCAARGYTVWDDYWGQGTQVTVSS” the “polyreactivity (PSR sort gate)” value was “high polyreactivity”. For “QVQLVESGGGLYQAGGSLRLSCAASGFILSTNVMGWYRQAPGKEREKVAAISARGGSTYYADSVKGRFTISRDNAKNTVYLQMNILKPEDTAVYYCAARVYVSRSKRLNYWGQGTQVTVSS”, the “polyreactivity (PSR sort gate)” value was “high polyreactivity”. With “QVQLVESGGGRDQAGGSLRLSCAASGSTFNGYAMGWYRQAPGKERELVAAISSRGGSTNYADSVKGRFTISRDNAKKTVYLQMNSLKPEDTAVYYCNAVYRRSRSVGSCFDDWGQVTQVTVSS” the “polyreactivity (PSR sort gate)” value was “high polyreactivity”. With “QVQLVESGGGSVQAGGSLRLSCAASGSTFQTNAMGWYRQAPGKERELVAAISRTGGRTYYADSVKGRFTISRDNAKNTVYLQMNSLKPEDTAVYYCAASAWIRYNNRDGYGYWGQGTQVTVSS” the “polyreactivity (PSR sort gate)” value was “high polyreactivity”. In the case of “QVQLVESGGGSVQAGGSLRLSCAASGSTFQYYDMGWYRQAPGKERELVASITGSGDSTYYADSVKGRFTISRDNAKNTVYLQLNSLKPEDTAVYYCAAQNTWSGDYDYWGQGTQVTVSS”, the “polyreactivity (PSR sort gate)” value is reported as “low polyreactivity”. In the case of “QVQLVESGGGSVQAGGSLRLSCAASGSTFWSYAMGWYRQAPGKERELVAVITGSDGRTFYADSVKGRFTISRDNANNTFFLQMNSLKPEDTAVYYCAADALFRATRFDRSTSEDDYWGQGTQVTVSS”, the “polyreactivity (PSR sort gate)” value is reported as “low polyreactivity”. In the case of “QVQLVESGGGVVQAGGSLRISCAASGRTFGVYVMGWYRQAPGKERELVAAISSSGGRTYYADSVKGRFTISRDNAKNTFYLQMNSLKPEDTAVFYCNAVRRREERDGPPNQMDYWGQGTQVTVSS”, the “polyreactivity (PSR sort gate)” value is reported as “high polyreactivity”. For “QVQLVESGGGVVQAGGSLRISCDASGRTFWNYAMGWYRQAPGLERELVAVIRFSDGSTYYADSVKGRFTISRDNAKNTVYLQRNSLKPEDTAVYYCAAKGPRRWGSGFDYWGQGTQVTVSS”, the “polyreactivity (PSR sort gate)” value was “low polyreactivity”. In the case of “QVQLVESGGGVVQAGGSLRLICAASGSTFGVYAMGWYRQAPGKERELFASISESGGNTYYADSVKGRFTISRDNAKNTVYLQMNSLKPDDTAVYYCNTDVVDVHYIQAYYWGQVTQVTVSS”, the “polyreactivity (PSR sort gate)” value is reported as “low polyreactivity”. For “QVQLVESGGGVVQAGGSLRLSCAASGFIFWVYALGWYRQAPGKASELVAAITGRGGRTYYVDAVKGRFTISRDNAKNTVYLQMNSLKPEDTAVYYCNTVPYPAYLARMVYWGQGTQVTVTS”, the “polyreactivity (PSR sort gate)” value was “high polyreactivity”. With “QVQLVESGGGVVQAGGSLRLSCAASGFTFVWHAMGWYRQAPGKEREFVAAISRRGGTTNYADSVKGRFTISRDNAKNTVYLQMNSLKPEDTAVYYCNIEPRYRSSGGMDYWGQGTQVTASS” the “polyreactivity (PSR sort gate)” value was “high polyreactivity”. For “QVQLVESGGGVVQAGGSLRLSCAASGIIFDYYAMGLYRQAPGKERELVAAITSGGSTYYADSVKGRFTISRDNAKNSVYFQMKSLKAEDTAVYFCAAVYPRVRYDYWGQGTQVNVSS”, the “polyreactivity (PSR sort gate)” value was “high polyreactivity”. In the case of “QVQLVESGGGVVQAGGSLRLSCAASGITFQGDDMGWYRQAPGKEREFVAAITWNGGSTYYADSVKGRFTISRDHAKNTVFLQMNSLKPEDTAVYYCAADWSITYGDGGYWGQGTQVTVSS”, the “polyreactivity (PSR sort gate)” value is reported as “low polyreactivity”. For “QVQLVESGGGVVQAGGSLRLSCAASGRIFHDYAMGWYRQAPGKERELVAGMTSGVRTYYADSVKGRFTISRDNEKNTVYLQMNSLKPEDTAVYYCARRLSPLYDYDYWGQGTQVTVSP”, the “polyreactivity (PSR sort gate)” value was “low polyreactivity”.
